Key:
[1] = test system: EphA2 having Myc-labeled C-terminal
[2] = test system: processing-resistant EphA2 mutant (EphA2 deleted at a site to be processed by MT1-MMP, FLAG-labeled C terminal)
[3] = target: E-cadherin (UniProt P12830)
[4] = test system: EphA2 (full-length type EphA2)

Sequence of E-cadherin (P12830 155-882): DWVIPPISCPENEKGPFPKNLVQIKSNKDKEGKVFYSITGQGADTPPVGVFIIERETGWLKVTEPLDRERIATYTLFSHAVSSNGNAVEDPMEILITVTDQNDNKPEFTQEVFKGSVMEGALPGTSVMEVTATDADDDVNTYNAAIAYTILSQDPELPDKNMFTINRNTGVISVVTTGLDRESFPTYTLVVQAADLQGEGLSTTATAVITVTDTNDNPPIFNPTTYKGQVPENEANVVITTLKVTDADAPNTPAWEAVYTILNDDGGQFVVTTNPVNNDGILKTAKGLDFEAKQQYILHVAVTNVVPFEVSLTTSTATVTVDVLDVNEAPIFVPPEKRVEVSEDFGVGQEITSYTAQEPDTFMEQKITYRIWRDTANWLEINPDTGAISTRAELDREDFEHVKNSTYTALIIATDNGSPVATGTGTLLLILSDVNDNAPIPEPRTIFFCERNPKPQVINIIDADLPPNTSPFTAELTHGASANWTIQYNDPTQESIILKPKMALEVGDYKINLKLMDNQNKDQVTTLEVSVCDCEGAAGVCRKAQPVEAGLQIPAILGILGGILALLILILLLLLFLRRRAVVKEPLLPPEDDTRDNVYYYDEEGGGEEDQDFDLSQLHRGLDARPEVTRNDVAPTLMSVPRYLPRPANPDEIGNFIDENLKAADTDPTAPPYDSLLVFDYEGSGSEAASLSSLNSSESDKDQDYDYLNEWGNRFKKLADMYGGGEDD

Substance	EphA2 processed fragments, western blotting with Myc antibody [1]	processed state of EphA2, western blotting [2]	processing of E-cadherin, western blotting [3]	65-kDa and 60-kDa processed fragments of EphA2 after MT1-MMP knockdown, IP-western [4]	EphA2 processed fragment, western blotting [1]
membrane type-1 matrix metallproteinase (MT1-MMP), expressed in cells	full-length type EphA2 (large arrow) and respective EphA2 processed fragments (small arrow) having a molecular weight of 65 and 60 kDa were detected	the mutant deleted at a cleavage site showed resistance against processing by MT1-MMP	presence or absence of MT1-MMP expression caused no change in the processing of E-cadherin	Due to MT1-MMP knockdown, the 65-kDa and 60-kDa processed fragments of EphA2 disappeared	
MT5-MMP					a processed fragment of EphA2 (small arrow) was detected only in the MT1-MMP-introduced cells
MT2-MMP					a processed fragment of EphA2 (small arrow) was detected only in the MT1-MMP-introduced cells
MT3-MMP					a processed fragment of EphA2 (small arrow) was detected only in the MT1-MMP-introduced cells

— patent US20190064149
